{"source": "paper PMC4025573", "key": {"purified protein [1]": {"substrate": "CC(=O)SCCNC(=O)CCNC(=O)[C@H](O)C(C)(C)COP(=O)(O)OP(=O)(O)OC[C@H]1O[C@@H](n2cnc3c(N)ncnc32)[C@H](O)[C@@H]1OP(=O)(O)O", "test": "purified protein", "details": "pH 7.5; 25.0 °C"}, "purified protein [2]": {"substrate": "CC(C)C(=O)C(=O)O", "test": "purified protein", "details": "pH 7.5; 25.0 °C"}}, "data": [{"protein": "MtIPMS (α-isopropylmalate synthase from Mycobacterium tuberculosis) (Mycobacterium tuberculosis H37Rv) (protein) MTTSESPDAYTESFGAHTIVKPAGPPRVGQPSWNPQRASSMPVNRYRPFAEEVEPIRLRNRTWPDRVIDRAPLWCAVDLRDGNQALIDPMSPARKRRMFDLLVRMGYKEIEVGFPSASQTDFDFVREIIEQGAIPDDVTIQVLTQCRPELIERTFQACSGAPRAIVHFYNSTSILQRRVVFRANRAEVQAIATDGARKCVEQAAKYPGTQWRFEYSPESYTGTELEYAKQVCDAVGEVIAPTPERPIIFNLPATVEMTTPNVYADSIEWMSRNLANRESVILSLHPHNDRGTAVAAAELGFAAGADRIEGCLFGNGERTGNVCLVTLGLNLFSRGVDPQIDFSNIDEIRRTVEYCNQLPVHERHPYGGDLVYTAFSGSHQDAINKGLDAMKLDADAADCDVDDMLWQVPYLPIDPRDVGRTYEAVIRVNSQSGKGGVAYIMKTDHGLSLPRRLQIEFSQVIQKIAEGTAGEGGEVSPKEMWDAFAEEYLAPVRPLERIRQHVDAADDDGGTTSITATVKINGVETEISGSGNGPLAAFVHALADVGFDVAVLDYYEHAMSAGDDAQAAAYVEASVTIASPAQPGEAGRHASDPVTIASPAQPGEAGRHASDPVTSKTVWGVGIAPSITTASLRAVVSAVNRAAR", "values": [{"measurement": "Km", "setting": "purified protein [1]", "result": "42 ± 12", "unit": "µM"}, {"measurement": "kcat/Km", "setting": "purified protein [1]", "result": "80000 ± 20000", "unit": "M⁻¹ s⁻¹"}, {"measurement": "Km", "setting": "purified protein [2]", "result": "6.4 ± 1.4", "unit": "µM"}, {"measurement": "kcat/Km", "setting": "purified protein [2]", "result": "500000 ± 130000", "unit": "M⁻¹ s⁻¹"}]}]}
